Data on three sequences can be found in the Immune Epitope Database (IEDB).

pKd: −log10 of the molar value.

One assay deals with HLA-B*48:01. The experiment in a line: IEDB peptide-MHC binding, purified MHC/direct/fluorescence; filed as Kd, often an IC50 or EC50 that approximates it; ≥ and ≤ were set here for values at or beyond the usual limits of such assays. As to conditions: source organism: Marburg virus - Musoke, Kenya, 1980.
For another assay, the target named is HLA-B*08:02. The description is as above. The following applies: source organism: Orthomarburgvirus marburgense.
The target of a further assay is HLA-B*15:17. Described as above.
Another assay has as its target HLA-B*15:09. The assay is described as above. As to conditions: source organism: Orthomarburgvirus marburgense.
The target of the next assay is HLA-A*68:02. Described as above. As to conditions: source organism: Marburg virus - Musoke, Kenya, 1980.
The target in the next assay is HLA-A*01:01. Described as above. The following applies: source organism: Marburg virus - Musoke, Kenya, 1980.
The target in another assay is HLA-A*11:01. Described as above. The following applies: source organism: Marburg virus - Musoke, Kenya, 1980.
In the next assay the target is HLA-B*27:05. The description is as above. As to conditions: source organism: Marburg virus - Musoke, Kenya, 1980.
A further assay concerns the target HLA-B*58:01. The assay is described as above. The following applies: source organism: Marburg virus - Musoke, Kenya, 1980.
Another assay addresses HLA-A*31:01. Described as above. As to conditions: source organism: Marburg virus - Musoke, Kenya, 1980.
The next assay has as its target HLA-B*73:01. Described as above. As to conditions: source organism: Marburg virus - Musoke, Kenya, 1980.
The target of assay [1] is HLA-B*15:01. Described as above.
Another assay concerns the target HLA-A*02:01. Described as above.
The target in another assay is HLA-B*18:01. The assay is described as above.
A further assay concerns the target HLA-B*27:02. The description is as above. As to conditions: source organism: Orthomarburgvirus marburgense.
The target in another assay is HLA-B*57:01. Described as above.
The target in another assay is HLA-B*07:02. The assay is described as above. As to conditions: source organism: Marburg virus - Musoke, Kenya, 1980.
The next assay addresses HLA-A*26:02. The experiment in a line: IEDB peptide-MHC binding, purified MHC/competitive/fluorescence; filed as Kd, often an IC50 or EC50 that approximates it; ≥ and ≤ were set here for values at or beyond the usual limits of such assays. The following applies: source organism: Orthomarburgvirus marburgense.
Assay [2] addresses HLA-A*02:06. The assay is described as above. As to conditions: source organism: Orthomarburgvirus marburgense.
The target of another assay is HLA-B*27:03. Kind of assay: IEDB peptide-MHC binding, purified MHC/direct/fluorescence; filed as Kd, often an IC50 or EC50 that approximates it; ≥ and ≤ were set here for values at or beyond the usual limits of such assays. The following applies: source organism: Vibrio parahaemolyticus AQ3810.
For another assay, the target named is HLA-A*02:16. The description is as above. The following applies: source organism: Vibrio parahaemolyticus AQ3810.
Another assay deals with HLA-A*29:02. The assay is described as above. The following applies: source organism: Vibrio parahaemolyticus AQ3810.
A further assay concerns the target HLA-A*26:01. The description is as above. As to conditions: source organism: Vibrio parahaemolyticus AQ3810.
The next assay has as its target HLA-A*02:12. The assay is described as above. As to conditions: source organism: Vibrio parahaemolyticus AQ3810.
In another assay the target is HLA-A*69:01. The assay is described as above. As to conditions: source organism: Vibrio parahaemolyticus AQ3810.
Another assay deals with HLA-B*46:01. The description is as above. As to conditions: source organism: Vibrio parahaemolyticus AQ3810.
The next assay deals with HLA-A*03:01. The description is as above. As to conditions: source organism: Vibrio parahaemolyticus AQ3810.
Assay [3] concerns the target HLA-A*02:06. The description is as above. As to conditions: source organism: Vibrio parahaemolyticus AQ3810.
Assay [4] deals with HLA-B*51:01. The description is as above. The following applies: source organism: Vibrio parahaemolyticus AQ3810.
The target in the next assay is HLA-B*83:01. The experiment in a line: IEDB peptide-MHC binding, purified MHC/competitive/fluorescence; filed as Kd, often an IC50 or EC50 that approximates it; ≥ and ≤ were set here for values at or beyond the usual limits of such assays. The following applies: source organism: Yersinia pestis Nepal516.
A further assay concerns the target HLA-B*40:13. The assay is described as above. The following applies: source organism: Yersinia pestis Nepal516.
A further assay addresses HLA-B*35:01. The description is as above. The following applies: source organism: Yersinia pestis Nepal516.
A further assay concerns the target HLA-A*32:07. Described as above. The following applies: source organism: Yersinia pestis Nepal516.
In a further assay the target is HLA-B*45:06. Described as above. The following applies: source organism: Yersinia pestis Nepal516.
A further assay deals with HLA-A*32:15. Described as above. The following applies: source organism: Yersinia pestis Nepal516.
The target of a further assay is HLA-B*15:42. The assay is described as above. As to conditions: source organism: Yersinia pestis Nepal516.
Assay [5] deals with HLA-B*15:01. The assay is described as above. As to conditions: source organism: Yersinia pestis Nepal516.
Another assay addresses HLA-A*68:23. The assay is described as above. As to conditions: source organism: Yersinia pestis Nepal516.
Assay [6] addresses HLA-B*51:01. The description is as above. The following applies: source organism: Yersinia pestis Nepal516.
The mark [7] stands for this setting: source organism: Marburg virus - Musoke, Kenya, 1980.
[8] abbreviates: source organism: Vibrio parahaemolyticus AQ3810.

One may read the pKd as the negative decadic logarithm of the Kd, by convention in mol/L. Read a low pKd as a high Kd. Turning to KRLLLKLDF, the pKd with HLA-B*48:01, in the assay with HLA-B*08:02, with HLA-B*15:17 (setting [7]), with HLA-B*15:09, with HLA-A*68:02 and with HLA-A*01:01 was ≤ 4.70 throughout. For the same sequence, the pKd with HLA-A*11:01 was ≤ 4.70; in the assay with HLA-B*27:05, 6.42; in the assay with HLA-B*58:01 it was ≤ 4.70; with HLA-A*31:01 it was ≤ 4.70; with HLA-B*73:01, ≤ 4.70; with HLA-B*15:01 [1] (setting [7]), ≤ 4.70. For the same sequence, the pKd is ≤ 4.70 with HLA-A*02:01 (setting [7]); ≤ 4.70 in the assay with HLA-B*18:01 (setting [7]); 4.91 with HLA-B*27:02; ≤ 4.70 with HLA-B*57:01 (setting [7]); ≤ 4.70 with HLA-B*07:02; ≤ 4.70 in the assay with HLA-A*26:02. The sequence also had a pKd with HLA-A*02:06 [2] of 5.41.
MQGKDFNHL: the pKd is ≤ 4.70 with HLA-B*27:03; ≤ 4.70 with HLA-A*02:16; ≤ 4.70 in the assay with HLA-B*15:17 (setting [8]); ≤ 4.70 with HLA-A*29:02; ≤ 4.70 with HLA-A*26:01; 5.92 with HLA-A*02:12. The pKd with HLA-A*69:01, in the assay with HLA-B*46:01, in the assay with HLA-B*15:01 [1] (setting [8]), with HLA-A*03:01, with HLA-A*02:01 (setting [8]) and with HLA-B*18:01 (setting [8]) was ≤ 4.70 each time. Moreover, the values for the pKd with HLA-A*02:06 [3], with HLA-B*57:01 (setting [8]) and with HLA-B*51:01 [4] were 8.05, ≤ 4.70 and ≤ 4.70, respectively.
Turning to MPFAWQFGF, the pKd with HLA-B*83:01 is 7.53; in the assay with HLA-B*40:13 it was 6.64; in the assay with HLA-B*35:01 it was ≥ 10.00; with HLA-A*32:07 it was 8.25; in the assay with HLA-B*45:06, ≤ 5.30; in the assay with HLA-A*32:15 it was 8.49. Further, the pKd was ≤ 5.30 with HLA-B*15:42, ≤ 4.70 with HLA-B*15:01 [5], 8.57 with HLA-A*68:23 and 6.17 with HLA-B*51:01 [6].
